Test results reported in PMC8358895 (Cell reports, 2021).

Molecular target: MBP-PLK1 (UniProt P53350 1-603)
Test: pull-down

Sequence of MBP-PLK1 (P53350 whole entry): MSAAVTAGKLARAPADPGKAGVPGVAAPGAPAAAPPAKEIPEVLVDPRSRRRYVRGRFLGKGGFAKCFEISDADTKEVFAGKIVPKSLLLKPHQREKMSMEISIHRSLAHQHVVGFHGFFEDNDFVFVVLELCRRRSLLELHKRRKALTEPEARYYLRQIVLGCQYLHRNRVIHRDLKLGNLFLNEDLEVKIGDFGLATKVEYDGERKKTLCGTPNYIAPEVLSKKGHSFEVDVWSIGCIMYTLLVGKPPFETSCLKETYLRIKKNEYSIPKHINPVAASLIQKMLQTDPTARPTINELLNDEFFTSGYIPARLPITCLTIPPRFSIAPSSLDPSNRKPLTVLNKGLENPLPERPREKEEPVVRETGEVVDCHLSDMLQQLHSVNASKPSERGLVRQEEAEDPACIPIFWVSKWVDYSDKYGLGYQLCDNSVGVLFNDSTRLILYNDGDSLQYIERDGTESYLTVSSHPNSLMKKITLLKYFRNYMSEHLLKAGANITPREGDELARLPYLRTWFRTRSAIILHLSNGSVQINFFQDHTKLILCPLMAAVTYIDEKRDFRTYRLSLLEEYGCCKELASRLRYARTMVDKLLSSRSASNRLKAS

B1: GST-Apolo1-N (domain or fragment)
chain: MFLPHMNHLTLEQTFFSQVLPKTVKLFDDMMYELTSQARGLSSQNLEIQTTLRNILQTMVQLLGALTGCVQHICATQESIILENIQSLPSSVLHIIKSTFVHCKNSESVYSGCLHLVSDLLQALFKEAYSLQKQLMELLDMVCMDPLVDDNDDILNMVIVIHSLLDICSVISSMDH
  binding result: binds
